Measurements: patent US20030118612A1 (MAXYGEN, published 2003)

T1: human G-CSF receptor (human, UniProt Q99062 25-836)
T1 sequence (looked up): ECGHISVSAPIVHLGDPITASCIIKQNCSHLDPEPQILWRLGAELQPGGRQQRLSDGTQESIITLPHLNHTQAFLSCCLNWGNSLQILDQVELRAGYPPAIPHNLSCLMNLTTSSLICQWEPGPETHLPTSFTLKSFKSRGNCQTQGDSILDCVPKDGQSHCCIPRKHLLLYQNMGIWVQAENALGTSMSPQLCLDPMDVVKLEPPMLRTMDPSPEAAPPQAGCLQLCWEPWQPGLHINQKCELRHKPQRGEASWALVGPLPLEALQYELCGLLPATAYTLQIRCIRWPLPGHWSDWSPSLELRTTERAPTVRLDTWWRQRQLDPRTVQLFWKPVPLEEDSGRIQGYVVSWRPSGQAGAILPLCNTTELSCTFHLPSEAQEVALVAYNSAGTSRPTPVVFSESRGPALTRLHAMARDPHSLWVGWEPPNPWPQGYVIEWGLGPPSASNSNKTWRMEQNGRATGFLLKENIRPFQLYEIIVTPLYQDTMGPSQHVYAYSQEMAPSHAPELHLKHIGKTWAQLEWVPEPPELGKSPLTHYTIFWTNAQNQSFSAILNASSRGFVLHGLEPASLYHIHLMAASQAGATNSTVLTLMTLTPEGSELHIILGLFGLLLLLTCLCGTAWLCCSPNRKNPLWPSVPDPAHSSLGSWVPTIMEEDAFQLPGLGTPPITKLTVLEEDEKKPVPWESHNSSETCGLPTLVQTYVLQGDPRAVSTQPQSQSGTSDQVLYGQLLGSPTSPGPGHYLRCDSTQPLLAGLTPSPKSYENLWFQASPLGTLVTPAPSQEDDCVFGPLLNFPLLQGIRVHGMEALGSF

B1: G-CSF variant 23Q conjugated to SPA-PEG 5000 (ligand)
chain: TPLGPASSLPQSFLLKCLEQVRQIQGDGAALQEKLCATYKLCHPEELVLLGHSLGIPWAPLSSCPSQALQLAGCLSQLHSGLFLYQGLLQALEGISPELGPTLDTLQLDVADFATTIWQQMEELGMAPALQPTQGAMPAFASAFQRRAGGVLVASHLQSFLEVSYRVLRHLAQP
modifications: SPA-PEG 5000 conjugated to the available PEGylation sites
B2: G-CSF variant 23R, non-conjugated (ligand)
chain: TPLGPASSLPQSFLLKCLEQVRRIQGDGAALQEKLCATYKLCHPEELVLLGHSLGIPWAPLSSCPSQALQLAGCLSQLHSGLFLYQGLLQALEGISPELGPTLDTLQLDVADFATTIWQQMEELGMAPALQPTQGAMPAFASAFQRRAGGVLVASHLQSFLEVSYRVLRHLAQP
B3: G-CSF variant K16/34/40R Q90K T105K Q120K, non-conjugated (ligand)
chain: TPLGPASSLPQSFLLRCLEQVRKIQGDGAALQERLCATYRLCHPEELVLLGHSLGIPWAPLSSCPSQALQLAGCLSQLHSGLFLYQGLLKALEGISPELGPTLDKLQLDVADFATTIWQKMEELGMAPALQPTQGAMPAFASAFQRRAGGVLVASHLQSFLEVSYRVLRHLAQP
B4: G-CSF variant K16/34/40R Q70K Q90K T133K, non-conjugated (ligand)
chain: TPLGPASSLPQSFLLRCLEQVRKIQGDGAALQERLCATYRLCHPEELVLLGHSLGIPWAPLSSCPSQALKLAGCLSQLHSGLFLYQGLLKALEGISPELGPTLDTLQLDVADFATTIWQQMEELGMAPALQPKQGAMPAFASAFQRRAGGVLVASHLQSFLEVSYRVLRHLAQP
B5: G-CSF variant K16/34/40R Q90K T105K Q120K conjugated to SPA-PEG 5000 (ligand)
chain: TPLGPASSLPQSFLLRCLEQVRKIQGDGAALQERLCATYRLCHPEELVLLGHSLGIPWAPLSSCPSQALQLAGCLSQLHSGLFLYQGLLKALEGISPELGPTLDKLQLDVADFATTIWQKMEELGMAPALQPTQGAMPAFASAFQRRAGGVLVASHLQSFLEVSYRVLRHLAQP
modifications: SPA-PEG 5000 conjugated to the available PEGylation sites
B6: G-CSF variant K16/34/40R Q70K T105K Q120K, non-conjugated (ligand)
chain: TPLGPASSLPQSFLLRCLEQVRKIQGDGAALQERLCATYRLCHPEELVLLGHSLGIPWAPLSSCPSQALKLAGCLSQLHSGLFLYQGLLQALEGISPELGPTLDKLQLDVADFATTIWQKMEELGMAPALQPTQGAMPAFASAFQRRAGGVLVASHLQSFLEVSYRVLRHLAQP
B7: G-CSF variant K16/34/40R Q90K T105K S159K, non-conjugated (ligand)
chain: TPLGPASSLPQSFLLRCLEQVRKIQGDGAALQERLCATYRLCHPEELVLLGHSLGIPWAPLSSCPSQALQLAGCLSQLHSGLFLYQGLLKALEGISPELGPTLDKLQLDVADFATTIWQQMEELGMAPALQPTQGAMPAFASAFQRRAGGVLVASHLQKFLEVSYRVLRHLAQP
B8: G-CSF variant K16/34/40R Q70K Q120K T133K conjugated to SPA-PEG 5000 (ligand)
chain: TPLGPASSLPQSFLLRCLEQVRKIQGDGAALQERLCATYRLCHPEELVLLGHSLGIPWAPLSSCPSQALKLAGCLSQLHSGLFLYQGLLQALEGISPELGPTLDTLQLDVADFATTIWQKMEELGMAPALQPKQGAMPAFASAFQRRAGGVLVASHLQSFLEVSYRVLRHLAQP
modifications: SPA-PEG 5000 conjugated to the available PEGylation sites
B9: G-CSF variant K16/34/40R T105K Q120K T133K, non-conjugated (ligand)
chain: TPLGPASSLPQSFLLRCLEQVRKIQGDGAALQERLCATYRLCHPEELVLLGHSLGIPWAPLSSCPSQALQLAGCLSQLHSGLFLYQGLLQALEGISPELGPTLDKLQLDVADFATTIWQKMEELGMAPALQPKQGAMPAFASAFQRRAGGVLVASHLQSFLEVSYRVLRHLAQP
B10: G-CSF variant K16/34/40R Q90K T105K T133K, non-conjugated (ligand)
chain: TPLGPASSLPQSFLLRCLEQVRKIQGDGAALQERLCATYRLCHPEELVLLGHSLGIPWAPLSSCPSQALQLAGCLSQLHSGLFLYQGLLKALEGISPELGPTLDKLQLDVADFATTIWQQMEELGMAPALQPKQGAMPAFASAFQRRAGGVLVASHLQSFLEVSYRVLRHLAQP
B11: G-CSF variant K16/34/40R Q70K Q120K S142K, non-conjugated (ligand)
chain: TPLGPASSLPQSFLLRCLEQVRKIQGDGAALQERLCATYRLCHPEELVLLGHSLGIPWAPLSSCPSQALKLAGCLSQLHSGLFLYQGLLQALEGISPELGPTLDTLQLDVADFATTIWQKMEELGMAPALQPTQGAMPAFAKAFQRRAGGVLVASHLQSFLEVSYRVLRHLAQP
B12: G-CSF variant K16/34/40R Q70K Q90K T133K conjugated to SPA-PEG 5000 (ligand)
chain: TPLGPASSLPQSFLLRCLEQVRKIQGDGAALQERLCATYRLCHPEELVLLGHSLGIPWAPLSSCPSQALKLAGCLSQLHSGLFLYQGLLKALEGISPELGPTLDTLQLDVADFATTIWQQMEELGMAPALQPKQGAMPAFASAFQRRAGGVLVASHLQSFLEVSYRVLRHLAQP
modifications: SPA-PEG 5000 conjugated to the available PEGylation sites
B13: G-CSF variant K16/34/40R Q90K T105K T133K conjugated to SPA-PEG 5000 (ligand)
chain: TPLGPASSLPQSFLLRCLEQVRKIQGDGAALQERLCATYRLCHPEELVLLGHSLGIPWAPLSSCPSQALQLAGCLSQLHSGLFLYQGLLKALEGISPELGPTLDKLQLDVADFATTIWQQMEELGMAPALQPKQGAMPAFASAFQRRAGGVLVASHLQSFLEVSYRVLRHLAQP
modifications: SPA-PEG 5000 conjugated to the available PEGylation sites
B14: G-CSF variant K16/34/40R Q90K T105K S159K conjugated to SPA-PEG 5000 (ligand)
chain: TPLGPASSLPQSFLLRCLEQVRKIQGDGAALQERLCATYRLCHPEELVLLGHSLGIPWAPLSSCPSQALQLAGCLSQLHSGLFLYQGLLKALEGISPELGPTLDKLQLDVADFATTIWQQMEELGMAPALQPTQGAMPAFASAFQRRAGGVLVASHLQKFLEVSYRVLRHLAQP
modifications: SPA-PEG 5000 conjugated to the available PEGylation sites
B15: G-CSF variant K16/34/40R Q90K Q120K T133K conjugated to SPA-PEG 5000 (ligand)
chain: TPLGPASSLPQSFLLRCLEQVRKIQGDGAALQERLCATYRLCHPEELVLLGHSLGIPWAPLSSCPSQALQLAGCLSQLHSGLFLYQGLLKALEGISPELGPTLDTLQLDVADFATTIWQKMEELGMAPALQPKQGAMPAFASAFQRRAGGVLVASHLQSFLEVSYRVLRHLAQP
modifications: SPA-PEG 5000 conjugated to the available PEGylation sites
B16: G-CSF variant K16/34/40R Q70K T105K Q120K conjugated to SPA-PEG 5000 (ligand)
chain: TPLGPASSLPQSFLLRCLEQVRKIQGDGAALQERLCATYRLCHPEELVLLGHSLGIPWAPLSSCPSQALKLAGCLSQLHSGLFLYQGLLQALEGISPELGPTLDKLQLDVADFATTIWQKMEELGMAPALQPTQGAMPAFASAFQRRAGGVLVASHLQSFLEVSYRVLRHLAQP
modifications: SPA-PEG 5000 conjugated to the available PEGylation sites
B17: G-CSF variant K16/34/40R Q90K Q120K S142K, non-conjugated (ligand)
chain: TPLGPASSLPQSFLLRCLEQVRKIQGDGAALQERLCATYRLCHPEELVLLGHSLGIPWAPLSSCPSQALQLAGCLSQLHSGLFLYQGLLKALEGISPELGPTLDTLQLDVADFATTIWQKMEELGMAPALQPTQGAMPAFAKAFQRRAGGVLVASHLQSFLEVSYRVLRHLAQP
B18: G-CSF variant K16/34/40R Q70K Q120K T133K, non-conjugated (ligand)
chain: TPLGPASSLPQSFLLRCLEQVRKIQGDGAALQERLCATYRLCHPEELVLLGHSLGIPWAPLSSCPSQALKLAGCLSQLHSGLFLYQGLLQALEGISPELGPTLDTLQLDVADFATTIWQKMEELGMAPALQPKQGAMPAFASAFQRRAGGVLVASHLQSFLEVSYRVLRHLAQP
B19: G-CSF variant K16/34/40R Q90K Q120K S142K conjugated to SPA-PEG 5000 (ligand)
chain: TPLGPASSLPQSFLLRCLEQVRKIQGDGAALQERLCATYRLCHPEELVLLGHSLGIPWAPLSSCPSQALQLAGCLSQLHSGLFLYQGLLKALEGISPELGPTLDTLQLDVADFATTIWQKMEELGMAPALQPTQGAMPAFAKAFQRRAGGVLVASHLQSFLEVSYRVLRHLAQP
modifications: SPA-PEG 5000 conjugated to the available PEGylation sites
B20: G-CSF variant K16/34/40R Q70K Q90K Q120K conjugated to SPA-PEG 5000 (ligand)
chain: TPLGPASSLPQSFLLRCLEQVRKIQGDGAALQERLCATYRLCHPEELVLLGHSLGIPWAPLSSCPSQALKLAGCLSQLHSGLFLYQGLLKALEGISPELGPTLDTLQLDVADFATTIWQKMEELGMAPALQPTQGAMPAFASAFQRRAGGVLVASHLQSFLEVSYRVLRHLAQP
modifications: SPA-PEG 5000 conjugated to the available PEGylation sites
B21: G-CSF variant K16/34/40R Q70K Q120K S142K conjugated to SPA-PEG 5000 (ligand)
chain: TPLGPASSLPQSFLLRCLEQVRKIQGDGAALQERLCATYRLCHPEELVLLGHSLGIPWAPLSSCPSQALKLAGCLSQLHSGLFLYQGLLQALEGISPELGPTLDTLQLDVADFATTIWQKMEELGMAPALQPTQGAMPAFAKAFQRRAGGVLVASHLQSFLEVSYRVLRHLAQP
modifications: SPA-PEG 5000 conjugated to the available PEGylation sites
B22: G-CSF variant K16/34/40R Q90K Q120K T133K, non-conjugated (ligand)
chain: TPLGPASSLPQSFLLRCLEQVRKIQGDGAALQERLCATYRLCHPEELVLLGHSLGIPWAPLSSCPSQALQLAGCLSQLHSGLFLYQGLLKALEGISPELGPTLDTLQLDVADFATTIWQKMEELGMAPALQPKQGAMPAFASAFQRRAGGVLVASHLQSFLEVSYRVLRHLAQP

These binders were tested against T1, human G-CSF receptor (assay: cell-based or functional assay).

| Binder | EC50 (% of hG-CSF) conjugated to SPA-PEG 5000 | EC50 (% of hG-CSF) non-conjugated |
| --- | --- | --- |
| B1 | 0.1 % of hG-CSF | – |
| B2 | – | 100 % of hG-CSF |
| B3 | – | 10 % of hG-CSF |
| B4 | – | 15 % of hG-CSF |
| B5 | 2 % of hG-CSF | – |
| B6 | – | 10 % of hG-CSF |
| B7 | – | 55 % of hG-CSF |
| B8 | 2 % of hG-CSF | – |
| B9 | – | 10 % of hG-CSF |
| B10 | – | 10 % of hG-CSF |
| B11 | – | 10 % of hG-CSF |
| B12 | 5 % of hG-CSF | – |
| B13 | 2 % of hG-CSF | – |
| B14 | 5 % of hG-CSF | – |
| B15 | 2 % of hG-CSF | – |
| B16 | 2 % of hG-CSF | – |
| B17 | – | 10 % of hG-CSF |
| B18 | – | 15 % of hG-CSF |
| B19 | 1 % of hG-CSF | – |
| B20 | 12 % of hG-CSF | – |
| B21 | 1 % of hG-CSF | – |
| B22 | – | 15 % of hG-CSF |
